Results from PMC12158189, “Rigid DNA Frameworks Anchored Transistor Enabled Ultrasensitive Detection of Aβ-42 in Serum”.

B1: ss-DNA aptamer (Aβ-42 aptamer) (ssDNA)
DNA: AGTCTAGGATTCGGCGTGGGTTAATTTTTTGCTGCCTGTGGTGTTGGGGCGGGTGCG
modifications: 5' NH2-C6
B2: 17bp-5T TDN (tetrahedral DNA nanostructure with Aβ-42 aptamer) (structured_DNA)
DNA 1: AGTCTAGGATTCGGCGTGGGTTAATTTTTTGCTGCCTGTGGTGTTGGGGCGGGTGCGTTTTTACATTCCTAAGTCTGAAACATTACAGCTTGCTACACGAGAAGAGCCGCCATAGTA
DNA 2: TATCACCAGGCAGTTGACAGTGTAGCAAGCTGTAATAGATGCGAGGGTCCAATAC
DNA 3: TCAACTGCCTGGTGATAAAACGACACTACGTGGGAATCTACTATGGCGGCTCTTC
DNA 4: TTCAGACTTAGGAATGTGCTTCCCACGTAGTGTCGTTTGTATTGGACCCTCGCAT
modifications: 5' NH2-C6 on strands B17, C17, D17

Assays:
[1] = molecular target: T1, Aβ-42 (amyloid beta 1-42) (UniProt P05067 672-713); test: G-FET (VDirac shift, Hill fit); five orders of magnitude weaker than TDN; 12.5 mM Mg2+; SI captions say insulin; 1x PBS with 12.5 mM Mg2+, pH 7.0-7.4, room temperature; or full serum; probe immobilized on graphene FET; details: protein: commercial
T1 sequence (P05067 672-713): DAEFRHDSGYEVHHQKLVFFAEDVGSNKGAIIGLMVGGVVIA

[2] = molecular target: T1, Aβ-42 (amyloid beta 1-42); test: G-FET (VDirac shift, Hill fit); pseudo KD; 12.5 mM Mg2+; PBS; 1x PBS with 12.5 mM Mg2+, pH 7.0-7.4, room temperature; or full serum; probe immobilized on graphene FET; details: protein: commercial; DNA tetrahedron of 4 strands, six 17 bp edges, pendant aptamer with 5T spacer
[3] = molecular target: T1, Aβ-42 (amyloid beta 1-42); test: G-FET (VDirac shift, Ids-t); full serum; 1x PBS with 12.5 mM Mg2+, pH 7.0-7.4, room temperature; or full serum; probe immobilized on graphene FET; details: protein: commercial; DNA tetrahedron of 4 strands, six 17 bp edges, pendant aptamer with 5T spacer

Row | Binder | binding signal [1] | binding result [2] | binding result [3]
1 | B1 | ~100000 fold higher pseudo KD than TDN | – | –
2 | B2 | – | binds | binds
